Target: SARS-CoV-2 receptor-binding domain (RBD) of the spike protein (SARS-CoV-2) (UniProt P0DTC2)

Bamlanivimab/ LY-CoV555 (antibody) was tested, and the Kd was 3.5 nM.

Source: patent publication US12098186
